Assay results reported in patent US20230220042A1 (SHANGHAI JIAO TONG UNIVERSITY SCHOOL OF MEDICINE, published 2023).

T1: Biotin-FcγRIIB (human FcγRIIB, Sino Biological) (human, UniProt P31994 43-217, limits assumed, biotin-labeled)
T1 construct: Used at 1 µg/ml with Streptavidin-APC for flow cytometry and sorting; also called CD32b
T1 sequence (looked up): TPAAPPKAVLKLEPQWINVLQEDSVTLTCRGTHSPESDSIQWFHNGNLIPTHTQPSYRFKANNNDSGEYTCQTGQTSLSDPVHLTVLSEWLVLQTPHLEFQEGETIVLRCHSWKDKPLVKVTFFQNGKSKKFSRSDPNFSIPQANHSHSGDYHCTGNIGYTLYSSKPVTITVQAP

B1: human IgG2 anti-mouse CD40 surface displayed antibody, G327A/I332A (antibody, name in EU numbering)
light chain (with the P2A rest): DTVLTQSPALAVSPGERVTISCRASDSVSTLMHWYQQKPGQQPKLLIYLASHLESGVPARFSGSGSGTDFTLTIDPVEADDTATYYCQQSWNDPWTFGGGTKLELKRTVAAPSVFIFPPSDEQLKSGTASVVCLLNNFYPREAKVQWKVDNALQSGNSQESVTEQDSKDSTYSLSSTLTLSKADYEKHKVYACEVTHQGLSSPVTKSFNRGECGSGATNFSLLKQAGDVEENPG
heavy chain: EVQLVESDGGLVQPGRSLKLPCAASGFTFSDYYMAWVRQAPTKGLEWVASISYDGSSTYYRDSVKGRFTISRDNAKSTLYLQMDSLRSEDTATYYCGRHSSYFDYWGQGVMVTVSSASTKGPSVFPLAPCSRSTSESTAALGCLVKDYFPEPVTVSWNSGALTSGVHTFPAVLQSSGLYSLSSVVTVPSSNFGTQTYTCNVDHKPSNTKVDKTVERKCCVECPPCPAPPVAGPSVFLFPPKPKDTLMISRTPEVTCVVVDVSHEDPEVQFNWYVDGVEVHNAKTKPREEQFNSTFRVVSVLTVVHQDWLNGKEYKCKVSNKALPAPAEKTISKTKGQPREPQVYTLPPSREEMTKNQVSLTCLVKGFYPSDIAVEWESNGQPENNYKTTPPMLDSDGSFFLYSKLTVDKSRWQQGNVFSCSVMHEALHNHYTQKSLSLSPGKLEPPPSTVSNMATVAVLVVLGAAIVTGAVVAFVMKMRRRNTGGKGGDYALAPGSQTSDLSLPDCKVMVHDPHSLA
notes: m1 with these Fc mutations (Eu numbering); copies: 2 + 2
B2: human IgG2 anti-mouse CD40 surface displayed antibody, G327A/I332C (antibody, name in EU numbering)
light chain (with the P2A rest): DTVLTQSPALAVSPGERVTISCRASDSVSTLMHWYQQKPGQQPKLLIYLASHLESGVPARFSGSGSGTDFTLTIDPVEADDTATYYCQQSWNDPWTFGGGTKLELKRTVAAPSVFIFPPSDEQLKSGTASVVCLLNNFYPREAKVQWKVDNALQSGNSQESVTEQDSKDSTYSLSSTLTLSKADYEKHKVYACEVTHQGLSSPVTKSFNRGECGSGATNFSLLKQAGDVEENPG
heavy chain: EVQLVESDGGLVQPGRSLKLPCAASGFTFSDYYMAWVRQAPTKGLEWVASISYDGSSTYYRDSVKGRFTISRDNAKSTLYLQMDSLRSEDTATYYCGRHSSYFDYWGQGVMVTVSSASTKGPSVFPLAPCSRSTSESTAALGCLVKDYFPEPVTVSWNSGALTSGVHTFPAVLQSSGLYSLSSVVTVPSSNFGTQTYTCNVDHKPSNTKVDKTVERKCCVECPPCPAPPVAGPSVFLFPPKPKDTLMISRTPEVTCVVVDVSHEDPEVQFNWYVDGVEVHNAKTKPREEQFNSTFRVVSVLTVVHQDWLNGKEYKCKVSNKALPAPCEKTISKTKGQPREPQVYTLPPSREEMTKNQVSLTCLVKGFYPSDIAVEWESNGQPENNYKTTPPMLDSDGSFFLYSKLTVDKSRWQQGNVFSCSVMHEALHNHYTQKSLSLSPGKLEPPPSTVSNMATVAVLVVLGAAIVTGAVVAFVMKMRRRNTGGKGGDYALAPGSQTSDLSLPDCKVMVHDPHSLA
notes: as for B1
B3: human IgG2 anti-mouse CD40 surface displayed antibody, G327A/I332E (antibody, name in EU numbering)
light chain (with the P2A rest): DTVLTQSPALAVSPGERVTISCRASDSVSTLMHWYQQKPGQQPKLLIYLASHLESGVPARFSGSGSGTDFTLTIDPVEADDTATYYCQQSWNDPWTFGGGTKLELKRTVAAPSVFIFPPSDEQLKSGTASVVCLLNNFYPREAKVQWKVDNALQSGNSQESVTEQDSKDSTYSLSSTLTLSKADYEKHKVYACEVTHQGLSSPVTKSFNRGECGSGATNFSLLKQAGDVEENPG
heavy chain: EVQLVESDGGLVQPGRSLKLPCAASGFTFSDYYMAWVRQAPTKGLEWVASISYDGSSTYYRDSVKGRFTISRDNAKSTLYLQMDSLRSEDTATYYCGRHSSYFDYWGQGVMVTVSSASTKGPSVFPLAPCSRSTSESTAALGCLVKDYFPEPVTVSWNSGALTSGVHTFPAVLQSSGLYSLSSVVTVPSSNFGTQTYTCNVDHKPSNTKVDKTVERKCCVECPPCPAPPVAGPSVFLFPPKPKDTLMISRTPEVTCVVVDVSHEDPEVQFNWYVDGVEVHNAKTKPREEQFNSTFRVVSVLTVVHQDWLNGKEYKCKVSNKALPAPEEKTISKTKGQPREPQVYTLPPSREEMTKNQVSLTCLVKGFYPSDIAVEWESNGQPENNYKTTPPMLDSDGSFFLYSKLTVDKSRWQQGNVFSCSVMHEALHNHYTQKSLSLSPGKLEPPPSTVSNMATVAVLVVLGAAIVTGAVVAFVMKMRRRNTGGKGGDYALAPGSQTSDLSLPDCKVMVHDPHSLA
notes: as for B1

What follows are binders tested against T1, Biotin-FcγRIIB (human FcγRIIB, Sino …) (assay: NGS after FACS sort of 3T3-displayed Library4 for biotin-FcγRIIB binding).

For B1, which “Enrichment factor (percentage after sorting/percentage before sorting)” value is on record?
The value was 29.2.

And the “Increased factor (enrichment factor/wild-type enrichment factor)” value?
The value was 19.5.

With B2 as the binder, how does the “Enrichment factor (percentage after sorting/percentage before sorting)” value read?
The value was 11.4.

And the “Increased factor (enrichment factor/wild-type enrichment factor)” value?
The value was 7.64.

What does the source list for B3?
Enrichment factor (percentage after sorting/percentage before sorting): 126; Increased factor (enrichment factor/wild-type enrichment factor): 84.1
